Publication PMC7363588, “Mapping of the FGF14:Nav1.6 complex interface reveals FLPK as a functionally active peptide modulating excitability” (Physiological Reports, 2020)

B1: FLPK tetrapeptide (peptide)
peptide: FLPK

Columns and labels:
[1] = test system: Nav channels; conditions: peptide sequences derived from the LITFILKK motif of Navβ4 cytoplasmic tail; ref Grieco, Malhotra, Chen, Isom, & Raman, 2005; White et al., 2019; cited from earlier work
Source text: The presence of other accessory proteins that directly interact with Nav1.6 in the native system may contribute to the reported activity of FLPK. A critical determinant required for repetitive firing in MSN and Purkinje neurons is the Navβ4 accessory subunit (Ji et al., 2017; White et al., 2019).

[2] = molecular target: T1, FGF14-1b (aa 64-252), purified recombinant (human) (UniProt Q92915); test: SPR; Biacore T100, 25°C; FGF14 (RU 16,000), FGF14 V160A (RU 18,000) or Nav1.6 C-tail (RU 12,000) amine-coupled on CM5 chip; peptides 1-100 µM in HBS-P+ at 50 µl/min, 180 s association, 180 s dissociation; 1:1 binding model
T1 sequence: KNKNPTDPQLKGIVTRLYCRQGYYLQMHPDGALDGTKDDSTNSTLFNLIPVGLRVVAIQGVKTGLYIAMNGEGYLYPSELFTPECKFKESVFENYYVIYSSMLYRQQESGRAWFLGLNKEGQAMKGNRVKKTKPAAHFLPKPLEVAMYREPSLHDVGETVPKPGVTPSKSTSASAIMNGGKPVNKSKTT

Molecule | effect on fast inactivation and Na^+ currents [1] | koff [2] | kon [2]
LITFILKK | prevent stable fast inactivation and generate resurgent and persistent Na^+ currents through a voltage‐dependent open‐channel block | – | –
B1 | – | 0.000431 s⁻¹ | 84.4 M⁻¹ s⁻¹
